Article PMC6405930, “Conservation of the Amyloid Interactome Across Diverse Fibrillar Structures” (Scientific Reports, 2019)

B1: Calsyntenin-1: CSF protein bound to fibrils (protein, UniProt O94985 29-981, looked up)
Calsyntenin-1: ARVNKHKPWLEPTYHGIVTENDNTVLLDPPLIALDKDAPLRFAESFEVTVTKEGEICGFKIHGQNVPFDAVVVDKSTGEGVIRSKEKLDCELQKDYSFTIQAYDCGKGPDGTNVKKSHKATVHIQVNDVNEYAPVFKEKSYKATVIEGKQYDSILRVEAVDADCSPQFSQICSYEIITPDVPFTVDKDGYIKNTEKLNYGKEHQYKLTVTAYDCGKKRATEDVLVKISIKPTCTPGWQGWNNRIEYEPGTGALAVFPNIHLETCDEPVASVQATVELETSHIGKGCDRDTYSEKSLHRLCGAAAGTAELLPSPSGSLNWTMGLPTDNGHDSDQVFEFNGTQAVRIPDGVVSVSPKEPFTISVWMRHGPFGRKKETILCSSDKTDMNRHHYSLYVHGCRLIFLFRQDPSEEKKYRPAEFHWKLNQVCDEEWHHYVLNVEFPSVTLYVDGTSHEPFSVTEDYPLHPSKIETQLVVGACWQEFSGVENDNETEPVTVASAGGDLHMTQFFRGNLAGLTLRSGKLADKKVIDCLYTCKEGLDLQVLEDSGRGVQIQAHPSQLVLTLEGEDLGELDKAMQHISYLNSRQFPTPGIRRLKITSTIKCFNEATCISVPPVDGYVMVLQPEEPKISLSGVHHFARAASEFESSEGVFLFPELRIISTITREVEPEGDGAEDPTVQESLVSEEIVHDLDTCEVTVEGEELNHEQESLEVDMARLQQKGIEVSSSELGMTFTGVDTMASYEEVLHLLRYRNWHARSLLDRKFKLICSELNGRYISNEFKVEVNVIHTANPMEHANHMAAQPQFVHPEHRSFVDLSGHNLANPHPFAVVPSTATVVIVVCVSFLVFMIILGVFRIRAAHRRTMRDQDTGKENEMDWDDSALTITVNPMETYEDQHSSEEEEEEEEEEESEDGEEEDDITSAESESSEEEEGEQGDPQNATRQQQLEWDDSTLSY
B2: Fibulin-1: CSF protein bound to fibrils (protein, UniProt P23142 30-703, looked up)
Fibulin-1: DVLLEACCADGHRMATHQKDCSLPYATESKECRMVQEQCCHSQLEELHCATGISLANEQDRCATPHGDNASLEATFVKRCCHCCLLGRAAQAQGQSCEYSLMVGYQCGQVFQACCVKSQETGDLDVGGLQETDKIIEVEEEQEDPYLNDRCRGGGPCKQQCRDTGDEVVCSCFVGYQLLSDGVSCEDVNECITGSHSCRLGESCINTVGSFRCQRDSSCGTGYELTEDNSCKDIDECESGIHNCLPDFICQNTLGSFRCRPKLQCKSGFIQDALGNCIDINECLSISAPCPIGHTCINTEGSYTCQKNVPNCGRGYHLNEEGTRCVDVDECAPPAEPCGKGHRCVNSPGSFRCECKTGYYFDGISRMCVDVNECQRYPGRLCGHKCENTLGSYLCSCSVGFRLSVDGRSCEDINECSSSPCSQECANVYGSYQCYCRRGYQLSDVDGVTCEDIDECALPTGGHICSYRCINIPGSFQCSCPSSGYRLAPNGRNCQDIDECVTGIHNCSINETCFNIQGGFRCLAFECPENYRRSAATLQQEKTDTVRCIKSCRPNDVTCVFDPVHTISHTVISLPTFREFTRPEEIIFLRAITPPHPASQANIIFDITEGNLRDSFDIIKRYMDGMTVGVVRQVRPIVGPFHAVLKLEMNYVVGGVVSHRNVVNVHIFVSEYWF
B3: α2-HS-glycoprotein: CSF protein bound to fibrils (protein, UniProt P02765 19-300; P02765 341-367, looked up)
Alpha-2-HS-glycoprotein chain … 1: APHGPGLIYRQPNCDDPETEEAALVAIDYINQNLPWGYKHTLNQIDEVKVWPQQPSGELFEIEIDTLETTCHVLDPTPVARCSVRQLKEHAVEGDCDFQLLKLDGKFSVVYAKCDSSPDSAEDVRKVCQDCPLLAPLNDTRVVHAAKAALAAFNAQNNGSNFQLEEISRAQLVPLPPSTYVEFTVSGTDCVAKEATEAAKCNLLAEKQYGFCKATLSEKLGGAEVAVTCMVFQTQPVSSQPQPEGANEAVPTPVVDPDAPPSPPLGAPGLPPAGSPPDSHVL
Alpha-2-HS-glycoprotein chain … 2: TVVQPSVGAAAGPVVPPCPGRIRHFKV
B4: Amyloid-like protein 1: CSF protein bound to fibrils (protein, UniProt P51693 39-650, looked up)
Amyloid beta precursor like …: SLAGGSPGAAEAPGSAQVAGLCGRLTLHRDLRTGRWEPDPQRSRRCLRDPQRVLEYCRQMYPELQIARVEQATQAIPMERWCGGSRSGSCAHPHHQVVPFRCLPGEFVSEALLVPEGCRFLHQERMDQCESSTRRHQEAQEACSSQGLILHGSGMLLPCGSDRFRGVEYVCCPPPGTPDPSGTAVGDPSTRSWPPGSRVEGAEDEEEEESFPQPVDDYFVEPPQAEEEEETVPPPSSHTLAVVGKVTPTPRPTDGVDIYFGMPGEISEHEGFLRAKMDLEERRMRQINEVMREWAMADNQSKNLPKADRQALNEHFQSILQTLEEQVSGERQRLVETHATRVIALINDQRRAALEGFLAALQADPPQAERVLLALRRYLRAEQKEQRHTLRHYQHVAAVDPEKAQQMRFQVHTHLQVIEERVNQSLGLLDQNPHLAQELRPQIQELLHSEHLGPSELEAPAPGGSSEDKGGLQPPDSKDDTPMTLPKGSTEQDAASPEKEKMNPLEQYERKVNASVPRGFPFHSSEIQRDELAPAGTGVSREAVSGLLIMGAGGGSLIVLSMLLLRRKKPYGAISHGVVEVDPMLTLEEQQLRELQRHGYENPTYRFLEERP
B5: Cystatin-C: CSF protein bound to fibrils (protein, UniProt P01034 27-146, looked up)
Cystatin-C: SSPGKPPRLVGGPMDASVEEEGVRRALDFAVGEYNKASNDMYHSRALQVVRARKQIVAGVNYFLDVELGRTTCTKTQPNLDNCPFHDQPHLKRKAFCSFQIYAVPWQGTMTLSKSTCQDA

Target: αSN fibrils (Homo sapiens, UniProt P37840)
Assay: Fibril incubation with CSF, quantitative MS/MS of bound proteins
Assay type: binding
Set-up: key to Identification status of CSF protein bound: αSN: *: Identified, but not quantified; —: Not identified in any of the samples
Conditions: 4:1 w/w CSF protein:fibril
Description: (§1) Plasma and CSF solutions were centrifuged (40,000 g, 20 min) to remove any aggregates. The protein concentration was determined using 280 nm absorbance assuming 1 Abs = 1 mg/mL. […] Control samples (without fibril material) were prepared similarly. All samples were incubated at room temperature for one hour under gentle agitation. Fibrils and fibril-bound proteins were pelleted by centrifugation at 17,000 g for 30 minutes. The supernatant (175 μL) was removed and the aggregate was re-suspended in 175 μL PBS and pelleted again before further preparation for gel analysis and spin-filter assisted digest for quantitative MS/MS.
(§2) The fibril-protein pellets were transferred to spin-filters (0.22 μm), washed twice in PBS (100 μL) and once in 1 M NaCl (100 μL). The fibrils and fibril-bound proteins were dissolved by one-hour incubation in 100 μL 6 M guanidinium chloride followed by elution from the spin-filter. The eluted proteins were loaded onto a 3 kDa MWCO filter unit for filter-assisted unfolding, reduction, alkylation, and trypsin digestion. In brief, samples were washed twice in 8 M urea, once in 8 M urea with 50 mM DTT, once in 8 M urea with 50 mM iodoaceteamide, and twice in 8 M Urea. The filter units were dried by centrifugation (14,000 g in 30 minutes) after every addition. Trypsin digestion was carried out with 0.25 μg sequencing grade trypsin from Sigma Aldrich in 50 mM ammonium bicarbonate overnight at 37 °C. The tryptic peptides were collected by centrifugation, acidified with TFA (0.1%) and micro-purified using POROS R2 column material (Applied Biosystems) packed in P200 pipette tips (Sarstedt).
(§3) LC-MS/MS analyses were performed on an EASY-nLC II system (Thermo Fisher Scientific) connected to a TripleTOF 5600+ mass spectrometer (Sciex) equipped with a NanoSpray III source (Sciex) and operated under Analyst TF 1.6.0 control.
(§4) The micro-purified tryptic peptides were dissolved in 0.1% formic acid, injected and trapped on an in-house packed trap column (2 cm × 100 μm I.D) with RP ReproSil-Pur C18-AQ 3 μm resin (Dr. Maisch GmbH). Peptides were eluted from the trap column and separated on a 15 cm analytical column (75 μm i.d.) packed in-house in a pulled emitter with RP ReproSil-Pur C18-AQ 3 μm resin (Dr. Maisch GmbH). Elution from the analytical column was performed with a linear gradient from 5% to 35% phase B (90% acetonitrile with 0.1% formic acid) over 20 min for protein identification and 50 min for quantitative analysis, respectively.
(§5) All samples were analysed three times, yielding nine MS/MS experiments for each fibril for both plasma and CSF. For the area-based extracted ion chromatogram (XIC) quantification, the acquisition method was set up as an information-dependent acquisition (IDA) experiment collecting up to 25 MS/MS spectra in each 1.6 sec cycle using an exclusion window of 6 sec.
(§6) XIC quantification was based on the average ion intensity of the three most abundant peptides for each protein. Only proteins quantified in at least four out of nine MS/MS experiments per fibril were included in the quantification. The total ion scores were visualized after grouping the proteins according to function (Figure S11).
(§7) For each MS/MS experiment, the ion intensities of the individual proteins were normalized to the total ion intensity of that MS/MS experiment to achieve a relative protein composition. The contribution of each protein was averaged over all nine MS/MS experiments (Tables 1 and 2).

Molecule | Relative composition of CSF proteins bound: αSN
B1 | 3.1 ± 0.4 % of total protein

Same assay, conditions: symbol cells

Molecule | Identification status of CSF protein bound: αSN
B2 | —
B3 | *
B4 | *
B5 | *

Test system: T1, FAS4-AD aggregates
T1 construct: aggregates of a mutated version of the FAS1-4 domain of TGFBIp
Assay: as above
Assay type: binding, human
Set-up: key to Identification status of CSF protein bound: FAS4-AD: *: Identified, but not quantified; —: Not identified in any of the samples
Conditions: symbol cells
Description: as §1, §2, §3, §4, §5, §6, §7

Molecule | Identification status of CSF protein bound: FAS4-AD
B2 | —
B3 | —
B4 | —
B1 | —
B5 | *

Target: T2, C-36 fibrils (Homo sapiens, UniProt P01009)
T2 construct: the 36 residue C-terminal fragment of α1-antitrypsin (C-36)
Assay: as above
Assay type: binding
Set-up: key to Identification status of CSF protein bound: C-36: *: Identified, but not quantified; —: Not identified in any of the samples
Conditions: 4:1 w/w CSF protein:fibril
Description: as §1, §2, §3, §4, §5, §6, §7

T2 sequence (P01009 383-418 limits assumed): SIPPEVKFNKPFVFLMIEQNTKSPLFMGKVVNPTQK

Molecule | Relative composition of CSF proteins bound: C-36
B2 | 1.2 ± 0.2 % of total protein
B3 | 3.6 ± 0.7 % of total protein
B4 | 2.0 ± 0.1 % of total protein
B1 | 1.2 ± 0.1 % of total protein

Same assay, conditions: symbol cells

Molecule | Identification status of CSF protein bound: C-36
B5 | *

Test system: T3, Ab2 fibrils
T3 construct: Two structurally distinct fibrils of the Aβ(1–40) peptide associated with AD
Assay: as above
Assay type: binding, human
Conditions: 4:1 w/w CSF protein:fibril
Description: as §1, §2, §3, §4, §5, §6, §7

Molecule | Relative composition of CSF proteins bound: Ab2
B2 | 1.3 ± 0.1 % of total protein
B3 | 1.9 ± 0.6 % of total protein
B4 | 3.4 ± 0.7 % of total protein
B1 | 1.8 ± 0.8 % of total protein
B5 | 6.0 ± 0.6 % of total protein

Test system: T4, Ab1 fibrils
T4 construct: Synthetic amyloid β peptide 1–40 was purchased from Caslo Aps (Lyngby, Denmark); purchased Caslo Aps (Lyngby, Denmark); host or cells: synthetic peptide
Assay: as above
Assay type: binding, human
Conditions: 4:1 w/w CSF protein:fibril
Description: as §1, §2, §3, §4, §5, §6, §7

Molecule | Relative composition of CSF proteins bound: Ab1
B2 | 1.4 ± 0.1 % of total protein
B3 | 1.1 ± 0.0 % of total protein
B4 | 2.8 ± 0.2 % of total protein
B5 | 3.9 ± 0.4 % of total protein

Target: T5, glucagon fibrils (Homo sapiens, UniProt P01275)
T5 construct: fibrils of the peptide hormone glucagon
Assay: as above
Assay type: binding
Conditions: 4:1 w/w CSF protein:fibril
Description: as §1, §2, §3, §4, §5, §6, §7

T5 sequence (P01275 53-81 limits assumed): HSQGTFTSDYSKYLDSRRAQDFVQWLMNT

Molecule | Relative composition of CSF proteins bound: Glucagon
B2 | 0.3 ± 0.0 % of total protein
B3 | 0.7 ± 0.2 % of total protein
B4 | 0.6 ± 0.0 % of total protein
B1 | 0.4 ± 0.2 % of total protein
B5 | 0.9 ± 0.0 % of total protein
